The values below come from patent US20230295331A1 (PROMAB BIOTECHNOLOGIES, published 2023).

“And” between values parts separate entries of the source, which are not always exact repeats. Equal entries are not always repeated.

For experiment [1], the target named is T1, CS1 protein (SLAM family member 7, CD319) on cells (human, UniProt Q9NQ25 23-335).
T1 construct: The cells are CHO-CS1 (bought from BPS Bioscience), Hela-CS1 (transduced with CS1 cDNA lentivirus) and the myeloma lines, which carry CS1 of their own; also called CHO-CS1 cells; Hela-CS1 cells
T1 sequence: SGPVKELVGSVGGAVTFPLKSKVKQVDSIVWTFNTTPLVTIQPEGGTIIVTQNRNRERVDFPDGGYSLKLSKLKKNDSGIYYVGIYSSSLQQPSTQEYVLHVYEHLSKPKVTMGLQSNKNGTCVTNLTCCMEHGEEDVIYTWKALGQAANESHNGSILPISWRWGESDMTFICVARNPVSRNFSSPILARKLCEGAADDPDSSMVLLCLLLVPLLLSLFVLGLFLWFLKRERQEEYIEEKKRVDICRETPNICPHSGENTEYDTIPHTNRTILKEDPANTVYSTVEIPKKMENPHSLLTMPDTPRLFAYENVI
The experiment is described as follows: binding titration by flow cytometry on CHO-CS1 cells. For orientation: In flow cytometry, cells or beads pass a laser one at a time.

The target of experiment [2] is T1, CS1 protein (SLAM family member 7, …). Nature of the experiment: flow cytometry binding titration on CHO-CS1 cells.

B1: mouse monoclonal anti-human CS1 antibody, clone 7A8D5 (antibody, V domains shown)
VH: VQLQQSGPEVVRPGVSVKISCKGSGYTFTDYAIHWVKQSHAKSLEWIGVINTYNGNTNYNQKFKGKATMTVDKSSSTAYMELARLTSEDSAIYYCTRTGYYYGPSHYFDYWGQGTTLTVSS
VL: DIVLTQSPASLTVSLGQRATMSCRASKSVSTSGYSYVHWYQQKPGQPPKLLIYLASNLESGVPARFSASGSGTDFTLNIHPVEEEDAATYYCQHSRELPWTFGGGTKLEIKR
notes: Mouse monoclonal antibody from a hybridoma, purified on a Protein G column; also called anti-CS1 antibody clone 7A8D5; CS1 clone 7A8D5
For orientation: Kd means the constant that tells how readily two partners part at equilibrium. As usually defined, the EC50 (read off the curve) is the midpoint of the concentration-response curve. In the case of B1, in experiment [1], the Kd was 5.3 nM and 0.8 µg/mL. Moreover, in experiment [2], the “EC50 (read off the curve)” value is around 0.7 µg/mL.
